This is an account of results in paper PMC4591472 (Microbiology (Reading, England), 2015).

Data set [1] concerns the molecule itself. Put plainly: two-hybrid.
In data set [2] the target is T1, FloT tagged to the T25 catalytic domain of adenylate cyclase (B. subtilis NCIB3610, UniProt O32076 1-509).
T1 sequence (looked up): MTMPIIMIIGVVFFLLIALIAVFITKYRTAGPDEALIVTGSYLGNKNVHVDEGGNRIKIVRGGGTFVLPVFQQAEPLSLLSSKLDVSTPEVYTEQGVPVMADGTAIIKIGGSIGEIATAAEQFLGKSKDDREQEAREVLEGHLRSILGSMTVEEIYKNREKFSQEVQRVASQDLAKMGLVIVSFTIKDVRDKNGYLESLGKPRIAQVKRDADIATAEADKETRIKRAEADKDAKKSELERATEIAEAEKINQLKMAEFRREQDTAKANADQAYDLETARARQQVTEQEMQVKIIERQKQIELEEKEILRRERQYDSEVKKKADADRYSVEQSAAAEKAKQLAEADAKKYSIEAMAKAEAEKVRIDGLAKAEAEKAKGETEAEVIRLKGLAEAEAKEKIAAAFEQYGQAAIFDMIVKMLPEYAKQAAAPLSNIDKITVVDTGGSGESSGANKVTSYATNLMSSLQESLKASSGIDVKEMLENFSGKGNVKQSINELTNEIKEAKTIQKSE
Nature of the data set: two-hybrid.

Data set [3] deals with the molecule itself. Nature of the data set: native gel or EMSA. (In general: A gel shift assay detects complexes by their altered migration in electrophoresis.)

As a reminder, the stoichiometry N is the number of molecules, sites or subunits per partner or assembly.

B1: KinB, bacterial two-hybrid fusion (enzyme, B. subtilis NCIB3610, UniProt Q08430 1-428, looked up)
chain: MEILKDYLLHICFILFPILLYQVFWLGKPAILVPKINSGLVTLFACGASVLCIIFPIHEMDYIQYGLQMIPVIICLFYISTASGLTVAASVLCFELLFYEPSAMFVFTLLPFLIIIPILFQKKWPFMSKAKKLLLSLLISCVEIFLFFASSWILSALNILNFQKSGIFVYEAAVSGLFRSSVLLLSIYIIESIAENIALRSQLIHSEKMTIVSELAASVAHEVRNPLTVVRGFVQLLFNDETLQNKSSADYKKLVLSELDRAQGIITNYLDMAKQQLYEKEVFDLSALIKETSSLMVSYANYKSVTVEAETEPDLLIYGDATKLKQAVINLMKNSIEAVPHGKGMIHISAKRNGHTIMINITDNGVGMTDHQMQKLGEPYYSLKTNGTGLGLTVTFSIIEHHHGTISFNSSFQKGTTVTIKLPADLPH
B1: in data set [1], the β-galactosidase activity was about 5500 Miller Units.

B2: KinD, bacterial two-hybrid fusion (enzyme, B. subtilis NCIB3610, UniProt O31671 1-506, looked up)
chain: MLERCKLKILKGACGRVKLYIILVVIPAIVISFFVYEKEKDTIAAEHKQEASVLLNLHRNKINYLIGETMARMTSLSIAIDRPVDIKKMQSILEKTFDSEPRFSGLYFLNAKGDVTASTTELKTKVNLADRSFFIKAKETKKTVISDSYSSRITGQPIFTICVPVLDSKRNVTDYLVAAIQIDYLKNLINLLSPDVYIEVVNQDGKMIFASGQASHAEDQKPVSGYLDDISWNMKVYPNPVTIEELSKSLVLPLSCIIVLLNILFILVLYYLLKRQTQLERSENEAQKLELIGTLAASTAHEIRNPLTGISGFIQLLQKKYKGEEDQLYFSIIEQEIKRINQIVSEFLVLGKPTAEKWELNSLQDIIGEIMPIIYSEGNLYNVEVELQYLTEQPLLVKCTKDHIKQVILNVAKNGLESMPEGGKLTISLGALDKKAIIKVVDNGEGISQEMLDHIFLPFVTSKEKGTGLGLVVCKRIVLMYGGSIHIESEVRRGTEVTITLPVSAS
B2: the β-galactosidase activity is about 1500 Miller Units in data set [1] and about 1100 Miller Units in data set [2].

B3: KinC, bacterial two-hybrid fusion (enzyme, B. subtilis NCIB3610, UniProt P39764 1-428, looked up)
chain: MRKYQARIISIILAMIFIMFWDYLFYFIGKNPINWPVDIVYTAVTLVSVWMLAYYIDEKQQLVKKMKDNEWKYKQLSEEKNRIMDNLQEIVFQTNAKGEITYLNQAWASITGFSISECMGTMYNDYFIKEKHVADHINTQIQNKASSGMFTAKYVTKNGTIFWGEVHYKLYYDRDDQFTGSLGTMSDITERKEAEDELIEINERLARESQKLSITSELAAGIAHEVRNPLTSVSGFLQIMKTQYPDRKDYFDIIFSEIKRIDLVLSELLLLAKPQAITFKTHQLNEILKQVTTLLDTNAILSNIVIEKNFKETDGCMINGDENQLKQVFINIIKNGIEAMPKGGVVTISTAKTASHAVISVKDEGNGMPQEKLKQIGKPFYSTKEKGTGLGLPICLRILKEHDGELKIESEAGKGSVFQVVLPLKSDS
Consider B3, for which the results for the β-galactosidase activity in data set [1] and in data set [2] were about 1500 Miller Units and over 3500 Miller Units, respectively.

B4: KinC-CFP (enzyme, B. subtilis, UniProt P39764 1-428, looked up)
chain: MRKYQARIISIILAMIFIMFWDYLFYFIGKNPINWPVDIVYTAVTLVSVWMLAYYIDEKQQLVKKMKDNEWKYKQLSEEKNRIMDNLQEIVFQTNAKGEITYLNQAWASITGFSISECMGTMYNDYFIKEKHVADHINTQIQNKASSGMFTAKYVTKNGTIFWGEVHYKLYYDRDDQFTGSLGTMSDITERKEAEDELIEINERLARESQKLSITSELAAGIAHEVRNPLTSVSGFLQIMKTQYPDRKDYFDIIFSEIKRIDLVLSELLLLAKPQAITFKTHQLNEILKQVTTLLDTNAILSNIVIEKNFKETDGCMINGDENQLKQVFINIIKNGIEAMPKGGVVTISTAKTASHAVISVKDEGNGMPQEKLKQIGKPFYSTKEKGTGLGLPICLRILKEHDGELKIESEAGKGSVFQVVLPLKSDS
As to B4, the “stoichiometry N” value in data set [3] was 2.

B5: ResE, bacterial two-hybrid fusion (enzyme, B. subtilis NCIB3610, UniProt P35164 1-589, looked up)
chain: MKFWKSVVGKLWFTILSLVLIVLFILTVLLLEFIENYHVEEAENDLTQLANKVAVILENHEDQALARSITWELADNLTSIAIIQDEKNHWYSPNDKNRLSSITVEQIQHDKDLNKALKDHKKVSKRTGLSDTDTDNERLIVGVPYEKDGKKGMVFLSQSLLAVKDTTKHTTRYIFLAAGIAIVLTTFFAFFLSSRVTYPLRKMREGAQDLAKGKFDTKIPILTQDEIGELATAFNQMGRQLNFHINALNQEKEQLSNILSSMADGVITINIDGTILVTNPPAERFLQAWYYEQNMNIKEGDNLPPEAKELFQNAVSTEKEQMIEMTLQGRSWVLLMSPLYAESHVRGAVAVLRDMTEERRLDKLREDFIANVSHELRTPISMLQGYSEAIVDDIASSEEDRKEIAQIIYDESLRMGRLVNDLLDLARMESGHTGLHYEKINVNEFLEKIIRKFSGVAKEKNIALDHDISLTEEEFMFDEDKMEQVFTNLIDNALRHTSAGGSVSISVHSVKDGLKIDIKDSGSGIPEEDLPFIFERFYKADKARTRGRAGTGLGLAIVKNIVEAHNGSITVHSRIDKGTTFSFYIPTKR
In data set [2], B5 gave a β-galactosidase activity of about 1600 Miller Units.
